Results published in PMC11023358.

Biological target: H2A.Z variant containing recombinant nucleosomes (UniProt P0C0S5)
Assay: pull-down; nucleosomes (2.5 μg) pre-bound to Dynabeads M-280 streptavidin; CFDP1 protein (10 μm) added; 4 h at 4°C; 20 mM Hepes pH 8.0, 150 mM NaCl, 0.2 mM EDTA, 20% glycerol, 0.1% NP40, 1 mM DTT; wash with 200 mM NaCl; immunoblot, normalized to H4

fold binding over H2A canonical nucleosomes (normalized to H4 levels): 3.3 fold
Substance: HIS tagged full-length CFDP1 protein (mouse craniofacial development protein 1) (from UniProt O88271 1-295) (natural protein)
